± gives the half width of the 95% confidence interval.
How the values were obtained:
[1] = folding stability dG unfold from chymotrypsin proteolysis; higher = more stable
Experimental: (§1)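 Folding stability of de novo designed mini-proteins (<80 aa, no Cys; designed by TrROS, TrMRF, ProteinMPNN and the joint model) was measured by cDNA display proteolysis with trypsin and chymotrypsin. Each protease was used at 11 concentrations in a threefold dilution series plus a no-protease condition. K50 was inferred by Bayesian fitting of sequencing counts, and dG unfold was derived against a sequence-predicted unfolded-state K50 (Tsuboyama et al. method). Sequences shown include variable-length N-terminal GS-type padding (SAGGSAGG...) inside a display construct carrying a PA tag. Rows were kept only if the AF2 dimer inter-PAE was >15, to exclude likely homo-oligomers.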

[2] = folding stability dG unfold (combined trypsin and chymotrypsin); higher = more stable
Experimental: as §1

Sequence	folding stability dG unfold [1] [kcal/mol]	folding stability dG unfold [2] [kcal/mol]
SAGGSAGGSAGGEARDNGVPTIEIPIPPEFKKGMPAEQMVDQLAKQLPPGVKDIHIEPPPSAGGSAGGSAGG [r7_487_TrROS]	0.744 ± 0.035	0.376 ± 0.13
SAGGSAGGSAGGEVITVKRPDGTPFDVTAVLSEDPVVPLLTVEATDDGPVVTLDVPASLLSAGGSAGGSAGG [r7_236_JUSTAS]	0.207 ± 0.16	-0.172 ± 0.26
SAGGSAGGSAGGEVPADAVIEERLEVTDVSTGEKRRFRRTVTVEVDPDGSLRVRTEVEEESAGGSAGGSAGG [r7_19_JUSTAS]	-0.184 ± 0.63	-0.215 ± 0.3
SAGGSAGGSAGGGATVTETRTEFVPPTGIVRVESVVTYPDGSTRRTSSVVVVERPGAQPSAGGSAGGSAGGS [r10_290_JUSTAS]	0.872 ± 0.03	0.386 ± 0.13
SAGGSAGGSAGGGMKTKTTISTHPGPGGKTRVLVEVDPKKGLLTWRDPSDPSATTVVPLGSAGGSAGGSAGG [r7_992_JUSTAS]	0.511 ± 0.23	-0.446 ± 0.41
SAGGSAGGSAGGGMPVPPVEVVEVSEEVRPLPPSSDKTVRRVTRTLPDGSTLTFEEPPESAGGSAGGSAGGS [r10_945_JUSTAS]	0.459 ± 0.04	0.064 ± 0.062
SAGGSAGGSAGGGPMIYTEETVEEVVKVGEKSIKRTVTTTKVEVPGKPGVVLETKVDWGGSAGGSAGGSAGG [r7_795_JUSTAS]	0.837 ± 0.024	0.312 ± 0.092
SAGGSAGGSAGGGSMDELPEIEEIAYVTDPATGAVTTVPASQVPEVLASTNNTVTIRPVSAGGSAGGSAGGS [r10_1121_JUSTAS]	0.363 ± 0.073	< -1
SAGGSAGGSAGGKIEIDNIERFRPPNGNRYYKMTIRVEGNGKEREIWAPADDADNFKIESAGGSAGGSAGGS [r10_326_TrROS]	-0.0266 ± 0.22	-0.474 ± 0.25
SAGGSAGGSAGGKKININVPAEEMTEEEIKKLIKNLPPDMPIEIEIQPVPPPPPPPPGDKSAGGSAGGSAGG [r7_979_TrROS]	-0.851 ± 0.63	< -1
SAGGSAGGSAGGMIIVPVVTEETVDVTFRKTPEGVWEPVGPQTITTTTTLTIDPTKGRLSAGGSAGGSAGGS [r10_93_JUSTAS]	0.135 ± 0.43	-0.443 ± 0.37
SAGGSAGGSAGGMKPGEVVLIYVERSYYDPEKGPLTPRNARYELLNYKPLPLKPKDPKVLSAGGSAGGSAGG [r7_522_JUSTAS]	-0.3 ± 0.26	-0.516 ± 0.16
SAGGSAGGSAGGMKPQPIKVTVERHFPDGTVELEELVFPSPEEVEKFLKENPDWTVVEVESAGGSAGGSAGG [r11_802_JUSTAS]	2.6 ± 0.081	3.4 ± 0.22
SAGGSAGGSAGGMPPVEIVEIVNSPGKNPVIVLDPATGEPRLIEVPPDVTLTPEMARRESAGGSAGGSAGGS [r10_844_JUSTAS]	0.838 ± 0.066	0.0501 ± 0.2
SAGGSAGGSAGGMSTVVEESFYPEERVLRRTTTTVEEEGVTTEPSVYTVEPGDPNVLTPASAGGSAGGSAGG [r7_866_JUSTAS]	0.0822 ± 0.22	-0.434 ± 0.25
SAGGSAGGSAGGMVRTLDLPNLSEEEIEEIIKKNPNEVYEITFRPPNGPEVTKTIPTHHSAGGSAGGSAGGS [r10_408_JUSTAS]	0.84 ± 0.081	0.524 ± 0.18
SAGGSAGGSAGGMYIPGDLVEWVSPVGDKWRVGLIGKPQTFDWKDIPAPSNENIVFVPGSAGGSAGGSAGGS [r10_665_TrMRF]	-0.392 ± 0.29	< -1
SAGGSAGGSAGGNPVYRTRAEILETVPVGEDETVWLPGTAAPVSPSTTVLLARVYSVPADSAGGSAGGSAGG [r11_793_TrMRF]	-0.355 ± 0.27	< -1
SAGGSAGGSAGGPFFMPEQKGTIPADELQKKGGNLTSVEIKVRPWMMELEIEIVYPPGDKSAGGSAGGSAGG [r7_116_TrROS]	1.14 ± 0.36	0.0937 ± 0.51
SAGGSAGGSAGGPIEEILASLPPNATVKVSRVVKLTTPDGSLSSIEVEEVITVKKPEKALSAGGSAGGSAGG [r11_347_JUSTAS]	0.655 ± 0.02	0.287 ± 0.13
SAGGSAGGSAGGPIVLKFKTKEEAEEFAKKLKKEIPNIKEVKIEEDPETGEYYLVVVNDSAGGSAGGSAGGS [r10_544_TrMRF]	4.86 ± 0.17	5 ± 0.28

— the supplement of paper PMC12764529
